Source: article PMC7596504, “Molecular mechanism of the MORC4 ATPase activation” (Nature Communications, 2020)
Substitutions are numbered along the chain they refer to. Where no end group is shown, it is not given here. Me3 = trimethyl

T1: MORC4 CW domain (aa 417-475) (human, UniProt Q8TE76 417-475)
T1 construct: CW-type zinc finger domain of human MORC4, aa 417-475, cloned into pGEX 6p-1; Uniformly 15N-labelled in the NMR experiments; unlabelled protein was further purified by size exclusion chromatography; also called WT MORC4 CW domain; source: E. coli Rosetta2 (DE3) pLysS or BL21 (DE3) RIL, purified (glutathione agarose, GST tag cleaved)
T1 sequence (looked up): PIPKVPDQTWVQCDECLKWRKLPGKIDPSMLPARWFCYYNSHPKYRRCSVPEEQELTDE

T2: MORC4 CW domain K460A/R462A/R463A (human, UniProt Q8TE76 417-475, K460A | R462A | R463A)
T2 construct: CW-type zinc finger domain of human MORC4, aa 417-475, triple mutant; Uniformly 15N-labelled in the NMR experiment; also called CWKRR; MORC4 CWKRR; source: E. coli, grown and purified as wild-type protein (glutathione agarose, GST tag cleaved)
T2 sequence (looked up): T1 sequence (looked up) with K44A, R46A, R47A

B1: MORC4 ATPaseCW cassette (aa 29-486) (domain or fragment, human, UniProt Q8TE76 29-486, looked up)
chain: GIRLSTMSPRYLQSNSSSHTRPFSAIAELLDNAVDPDVSARTVFIDVEEVKNKSCLTFTDDGCGMTPHKLHRMLSFGFTDKVIKKSQCPIGVFGNGFKSGSMRLGKDALVFTKNGGTLTVGLLSQTYLECVQAQAVIVPIVPFNQQNKKMIITEDSLPSLEAILNYSIFNRENDLLAQFDAIPGKKGTRVLIWNIRRNKNGKSELDFDTDQYDILVSDFDTEEKMTGGVTSELPETEYSLRAFCGILYMKPRMKIFLRQKKVTTQMIAKSLANVEYDTYKPTFTNKQVRITFGFSCKNSNQFGIMMYHNNRLIKSFEKVGCQVKPTRGEGVGVIGVIECNFLKPAYNKQDFEYTKEYRLTINALAQKLNAYWKEKTSQDNFETSTVARPIPKVPDQTWVQCDECLKWRKLPGKIDPSMLPARWFCYYNSHPKYRRCSVPEEQELTDEDLCLSKAKKQE
notes: ATPase domain and CW domain of human MORC4, aa 29-486, cloned into pDEST15; Homodimer in the crystal with AMPPNP and Mg2+; source: E. coli Rosetta2 (DE3) pLysS or BL21 (DE3) RIL, purified (glutathione agarose, GST tag cleaved, SEC)
B2: histone H3K4me3 peptide (aa 1-12 of H3) (peptide, UniProt P68431 2-13, looked up)
peptide: ARTK(Me3)QTARKSTG
notes: N-terminal tail of histone H3, aa 1-12
B3: unmodified histone H3 peptide (aa 1-12 of H3) (peptide, UniProt P68431 2-13, looked up)
peptide: ARTKQTARKSTG
notes: N-terminal tail of histone H3, aa 1-12; also called H3K4; unmodified H3 peptide

Tests used:
[1] = biological target: the molecule itself; assay: crystal structure; ATPaseCW (aa 29-486) with AMPPNP and Mg2+, 2.9 Å; crystallised after incubation with H3K4me3 peptide and 2 mM AMPPNP
[2] = biological target: T1, MORC4 CW domain (aa 417-475); assay: other fluorescence titration; tryptophan fluorescence, 25 °C; 0.5-1 µM ATPaseCW or CW in 20 mM Tris pH 6.8, 100 mM NaCl, 2 mM DTT, increasing histone peptide; details: both partners purified
[3] = biological target: B1; assay: as above; details: both partners purified
[4] = biological target: T2, MORC4 CW domain K460A/R462A/R463A; assay: NMR titration; 1H,15N HSQC of 15N-labelled CWKRR titrated with H3K4me3 peptide; 20 mM Tris-HCl pH 6.8, 150 mM NaCl, 2 mM DTT; details: both partners purified
[5] = biological target: B1; assay: other fluorescence titration; tryptophan fluorescence, 25 °C; ATPaseCW in the presence of 601 DNA (ATPaseCW:601 DNA complex), increasing histone peptide; details: both partners purified

| Kd [2] [nM] | Kd [3] [nM] | binding result [4] | Kd [5] [nM] | Binder | binding result [1] |
| --- | --- | --- | --- | --- | --- |
|  |  |  |  | B1 | binds |
| 112 | 180 | binds | 40 | B2 |  |
| 2700 |  |  |  | B3 |  |
